Measured values as given in the MegaScale stability set (Tsuboyama et al. 2023).

B1: HEEH_KT_rd6_0790 (parent)
chain: SEEEEEEWRRAKERGEEIIILGILWKPNDEEAERRIKEALRRV

Variants of: B1
Experiment: folding stability dG (cDNA display proteolysis); higher = more stable
Details: PBS, room temperature

Folding stability dG [kcal/mol], by site and new letter:
K12: Q 1.9 | A 1.59 | M 2.37 | S 1.44 | D 1.06 | G 1.07 | C 2.01 | L 1.86 | T 1.59 | R 2.07 | F 2.13 | Y 2.2 | N 1.3 | W 2.43 | V 1.89 | H 1.96 | P 1.02 | I 1.97 | E 0.988
R10: K 2.04 | T 1.55 | H 1.76 | P 0.8 | F 1.56 | E 1.33 | V 1.72 | G 1.56 | C 2.25 | I 1.8 | W 1.77 | D 1.2 | M 1.86 | Y 1.69 | A 1.82 | S 1.5 | L 1.82 | Q 1.81 | N 1.69
I18: M 1.42 | L 1.39 | P 0.472 | A 1.59 | R 1.3 | T 1.84 | S 1.17 | W 1.67 | H 1.29 | Y 1.86 | F 2.1 | E 0.975 | N 1.06 | Q 1.3 | C 2.38 | V 2.15 | D 0.812 | K 1.68 | G 0.605
E13: A 2.22 | T 1.77 | L 2.4 | H 1.68 | V 1.94 | P 0.785 | G 1.49 | D 1.93 | N 1.69 | S 2.1 | K 1.86 | F 1.77 | Y 1.78 | I 2.04 | Q 2.15 | W 1.78 | M 2.23 | R 1.77
G22: T 1.4 | D 1.29 | S 1.19 | N 1.18 | Q 1.15 | H 1.1 | I 2.28 | A 1.37 | E 1.12 | F 2.59 | P 0.681 | R 0.712 | V 2.1 | Y 1.98 | K 0.815 | L 2.12 | W 1.93 | M 2.3
I20: Y 1.5 | N 0.804 | Q 0.945 | K 0.813 | H 0.981 | M 1.28 | E 0.692 | W 1.17 | A 0.825 | S 0.816 | G 0.748 | F 2.27 | R 1.08 | D 0.628 | L 1.35 | P 0.587 | C 2.07 | V 1.84 | T 0.843
E16: K 1.96 | L 2.28 | W 2.03 | D 1.95 | T 1.94 | F 2.04 | R 1.66 | I 2.21 | A 1.7 | H 1.93 | Q 2.05 | Y 1.9 | P 1.15 | S 1.94 | M 1.93 | V 2.15 | N 1.71 | G 1.61
I19: Y 2.2 | F 2.08 | Q 1.69 | L 2.12 | E 1.85 | R 1.77 | T 2.14 | V 2.17 | S 1.52 | K 1.49 | N 1.55 | M 2.01 | P 0.976 | H 1.43 | W 2.53 | D 0.997 | G 1.01 | A 1.33
E17: L 1.89 | D 1.81 | N 1.95 | R 1.7 | F 1.92 | Q 2.02 | M 2.02 | V 2.08 | T 2.16 | W 2.29 | H 1.89 | S 2.18 | C 2.35 | P 2.5 | Y 1.91 | A 2.12 | G 1.53 | I 1.94 | K 1.74
K26: G 1.52 | N 1.6 | F 1.51 | E 1.26 | L 1.65 | R 2.4 | P 1.26 | I 2.02 | D 1.26 | V 2.06 | M 1.7 | T 2.12 | A 1.87 | Y 1.51 | Q 1.64 | S 1.99 | H 1.46 | W 1.53
R9: T 1.74 | S 1.62 | Y 1.95 | V 1.75 | W 1.92
A11: Q 1.2 | K 1.37 | M 1.94 | I 2.52 | G 1.22 | S 1.65 | Y 1.95 | R 1.62 | T 1.26 | P 1.03 | V 1.75 | H 1.6 | W 2.05 | D 0.949 | L 2.14 | N 1.28 | F 1.89 | E 1.05
R14: W 1.58 | A 2.04 | I 1.92 | K 2.12 | E 1.68 | N 1.97 | H 1.67 | V 1.76 | Y 1.68 | L 2.05 | S 1.92 | P 1.09 | D 1.49 | F 1.67 | G 1.42 | T 1.79 | Q 1.83 | M 1.88
W25: L 0.939 | A 0.981 | Y 1.25 | P 0.549 | F 1.4 | D 0.518 | T 0.615 | R 0.67 | E 0.532 | Q 0.568 | G 0.809 | K 0.664 | H 0.716 | N 0.423 | C 1.26 | I 1.01 | V 0.885 | S 0.662 | M 0.967
L21: S 1.24 | V 1.34 | D 1.04 | E 1.28 | F 1.97 | M 2.35 | P 0.723 | I 1.47 | R 2.07 | A 1.84 | W 1.26 | N 1.24 | H 1.88 | K 1.66 | Q 1.84 | T 1.04 | G 1.27 | Y 1.45
P27: A 1.13 | I 1.27 | K 1.12 | F 1.41 | G 1.21 | L 1.15 | R 0.846 | Q 1.2 | T 1.16 | C 2.1 | N 1.22 | E 1.37 | H 0.914 | M 1.18 | D 1.35 | S 1.02
G15: E 1.5 | K 1.6 | Y 1.44 | P 1.03 | H 1.53 | I 1.34 | F 1.57 | L 1.6 | S 1.61 | C 2.43 | V 1.32 | Q 1.81 | R 1.66 | A 1.39 | M 1.66 | D 1.25 | N 1.9 | W 1.68 | T 1.18
L24: W 1.26 | M 1.79 | T 1.75 | H 1.75 | I 1.69 | Q 1.66 | S 1.67 | F 1.64 | E 1.29 | D 0.729 | K 2.14 | G 0.898 | N 1.34 | A 1.53 | Y 1.72 | R 1.95 | V 1.79 | P 1.39
I23: R 0.853 | G 0.931 | N 0.85 | T 1.16 | W 0.765 | Q 0.969 | V 1.55 | F 1.26 | S 0.659 | K 1.08 | E 0.981 | L 1.46 | D 0.764 | M 1.08 | Y 0.775 | A 0.977 | P 0.9 | H 1.2
